Assay results: US7208311B2, “Catalytic domain of ADAM33 and methods of use thereof” (Schering Corporation, priority 2002, dated 2007)
Substitutions are numbered along the chain they refer to. Names and notes keep the numbering of the source.

Legend:
ADAM33 [1] = target: T1, ADAM33 (Homo sapiens, UniProt Q9BZ11); experiment: HPLC peptide substrate cleavage assay with ADAM33; format: biochemical; settings: for cleavage site of peptide: identified by MALDI-TOF MS; for cleavage of peptide by ADAM33: peptide 50 μM, ADAM33 0.1–0.5 μM, 2 h RT
T1 construct: made in house; host or cells: Drosophila melanogaster S2 cells
T1 sequence (Q9BZ11 204-409 limits assumed): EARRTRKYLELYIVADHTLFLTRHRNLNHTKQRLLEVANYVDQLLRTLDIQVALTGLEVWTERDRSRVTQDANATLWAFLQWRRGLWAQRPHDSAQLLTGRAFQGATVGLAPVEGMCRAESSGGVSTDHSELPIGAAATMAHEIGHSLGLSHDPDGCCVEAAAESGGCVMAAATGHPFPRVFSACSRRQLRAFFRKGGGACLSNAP
Method: (§1) The peptide substrate (50 μM) was incubated with or without ADAM33 (0.1–0.5 μM) in assay buffer (20 mM HEPES, pH 7.5, 0.5 M NaCl, 0.2 mg/ml bovine serum albumin (BSA)) for 2 hours (h) at room temperature (RT) in the presence or absence of various inhibitors [5 mM 1, 10-phenanthroline, or a protease inhibitor cocktail (2 μg/ml leupeptin, 0.4 μM benzamidine, 10 μg/ml soybean trypsin inhibitor and 0.5 mM iodoacetamide)]. The reaction was stopped by adding 10% trifluoroacetic acid (TFA) to a final concentration of 1% and samples were analyzed on Agilent HPLC model 1100 with C8 column. Solvents were: A, 0.1% TFA in water; B, 0.09% TFA in acetonitrile. A linear gradient from 2 to 42% B was run over 7 min at 1.5 ml/min and the eluate was monitored at 214 nm. The percentage of peptide cleavage was calculated using the peak area of the cleaved products divided by the sum of the peak areas of both the products and the remaining substrate. The cleavage sites of the peptide were identified by matrix-assisted laser-desorption/ionization time-of-flight (MALDI-TOF) mass spectrometry.
(§2) Specificity constants of peptide substrates, APP and KL-1, were obtained by using the HPLC assay described above. In brief, ADAM33cat (80 nM) was incubated with peptide substrate (30–2000 μM) in assay buffer for 10–60 min at RT. Reactions were timed to allow less than 15% turnover of the substrate. The initial cleavage velocities of the peptides were obtained by plotting cleaved product versus reaction time. The specificity constants, kcat/Km, were determined based on best fit of the data with the Michaelis-Menten equation when substrate concentration S<<Km.

ADAM33 [2] = target: T1, ADAM33; experiment: MCF 12-mer peptide proteolysis assay (HPLC); format: biochemical; settings: for ADAM33 activity in the presence of inhibitor: 1 mM inhibitor
Method: A 12-mer peptide (i.e. Ac-LPPVAASSLNRD-NH2; SEQ ID NO: 48), derived from human mast-cell growth factor (accession number NP-038626) was synthesized as a substrate for ADAM33. Reactions were initiated by addition of 200 nM enzyme to appropriate amounts of substrate in assay buffer (25 mM HEPES, pH 7.5, 0.5 M NaCl, 0.1% n-octyl-β-D-glucoside), incubated at 22° C. for 2 h and subsequently quenched with 1% TFA. When inhibitors were evaluated, the enzyme and inhibitors were preincubated at 22° C. for 30 min prior to initiation of the assays. Substrate and products were separated by HPLC using a C-8 reverse phase column (Zobrax 3.5 μm, 4.6 mmD/5 cmL, Agilent, Palo Alto, Calif., 0.1% TFA acetonitrile/H2O). Elution was monitored at 214 nm, and peaks identified by mass spectroscopy. Initial rates of proteolysis were determined using reactions in which less than 10% of the substrate was consumed. kcat/Km values were calculated assuming the enzymes were 100% active.
Production of ADAM33 and mutants thereof were produced essentially as described in Example 1. Proteolytic assays and methods for determining catalytic rates are essentially as described in Examples 2 and 3.

ADAM33 [3] = target: T1, ADAM33; experiment: HPLC inhibition assay, ADAM33cat with KL-1 peptide substrate; format: biochemical; settings: ADAM33cat 80 nM, KL-1 peptide 100 μM, 2 h RT
Method: The inhibition dissociation constants (Ki) for inhibitors were determined as follows: an HPLC assay was performed in the presence or absence of inhibitors for 2 h at RT using ADAM33cat (80 nM) and KL-1 peptide substrate (100 μM). For testing tissue inhibitor of metalloproteinases (TIMPs), ADAM33 and human TIMPs were pre-incubated for 1 h at RT. […] Initial velocities were calculated by dividing cleaved product over reaction time. The initial velocities were plotted as a function of inhibitor concentration. For tight binding inhibitors (IK682, TIMP-3), the apparent inhibitor dissociation constants (Ki app values) were calculated by fitting the curve to the following modified Morrison's equation: vi=vo{[(Eo−Io−Ki^app)^2+4 Ki^appEo]^1/2+(Eo−IoKI^app)}/2Eo where Ki^app=Ki(1+S/Km), vo is the uninhibited initial velocity, vi is the initial velocity in the presence of inhibitor at any given inhibitor concentration Io, and Eo is initial enzyme concentration. When the substrate concentration S<<Km, Ki^app is approximately equal to Ki.

[4] = substrate: CC(C)C[C@H](NC(=O)[C@H](CO)NC(=O)[C@H](CO)NC(=O)[C@H](C)NC(=O)[C@H](C)NC(=O)[C@@H](NC(=O)[C@@H]1CCCN1C(=O)[C@@H]1CCCN1)C(C)C)C(=O)N[C@@H](CCCNC(=N)N)C(=O)N[C@@H](CC(N)=O)C(=O)O; experiment: HPLC peptide substrate cleavage assay with ADAM33; format: biochemical, human; settings: other: ADAM33cat 80 nM, turnover <15%; pH 7.5
Method: as §1, §2

[5] = substrate: CC(C)C[C@H](NC(=O)[C@H](CCCCN)NC(=O)[C@H](CCC(N)=O)NC(=O)[C@H](Cc1c[nH]cn1)NC(=O)[C@H](Cc1c[nH]cn1)NC(=O)[C@@H](NC(=O)[C@H](CCC(=O)O)NC(=O)[C@@H](N)Cc1ccc(O)cc1)C(C)C)C(=O)N[C@H](C(=O)N[C@@H](Cc1ccccc1)C(=O)O)C(C)C; experiment: HPLC peptide substrate cleavage assay with ADAM33; format: biochemical, human; settings: other: ADAM33cat 80 nM, turnover <15%; pH 7.5
Method: as §1, §2

[6] = Thermal denaturation monitored by circular dichroism (220 nm); format: physicochemical
Method: The effect of CaCl2 on the stability of the ADAM33 N231Q catalytic domain as determined by thermal denaturation: The effect of the concentration of CaCl2 on the retention of the secondary structure of the ADAM33 N231 Q catalytic domain was monitored by circular dichroism (λ220 nm) as a function of temperature. A parallel study was performed replacing the CaCl2 with NaCl to control for the effect of the corresponding increase in ionic strength. The ADAM33 N231Q catalytic domain was purified as described above and then diluted to 0.2 mg/ml. The sample was then dialyzed against 25 mM Hepes, pH 7.5, 5% glycerol overnight. The temperature dependent protein denaturation was performed using a JASCO 810 spectropolarimeter under the following conditions: • Protein concentration: 0.2 mg/ml (based on a BioRad Protein Assay) • Cell length: 0.1 cm • Monitor wavelength: 220 nm • Temperature slope: 2° C./min • Measurement range: 20–80° C.

TRANCE: peptide substrate VGSQHIRAEK; SEQ ID NO: 44 (TRANCE Peptide)
cleavage site of peptide (ADAM33 [1]): H*I | cleavage of peptide by ADAM33 (ADAM33 [1]): cleaved

c1cnc2c(c1)ccc1cccnc12 [1,10-phenanthroline]
ADAM33 activity in the presence of inhibitor (ADAM33 [2]): completely abolished

CC(C)CC(CC(=O)NO)C(=O)N[C@H](C(=O)N[C@@H](C)C(=O)NCCN)C(C)(C)C (mixture of isomers) [Immunex compound 1, N-{DL-[2-(hydroxyamino-carbonyl)methyl]4-methylpentanoyl}-L-3-(tertbutyl)glycyl-L-alanine,2-aminoethylamide]
Ki (ADAM33 [3]): 2850 ± 152 nM

insulin B chain: peptide substrate HLVEALYLVC; SEQ ID NO: 45 (insulin B chain peptide)
cleavage site of peptide (ADAM33 [1]): A*L | cleavage of peptide by ADAM33 (ADAM33 [1]): cleaved

O=C(O)CN(CCN(CC(=O)O)CC(=O)O)CC(=O)O [EDTA]
ADAM33 activity in the presence of inhibitor (ADAM33 [2]): completely abolished

Ac-LPPVAASSLNRD-NH2 [MCF substrate peptide]
cleavage site of MCF peptide by wild-type ADAM33 (ADAM33 [2]): between the residues corresponding to Ala-190 and Ser-191 | Km (ADAM33 [2]; 200 nM enzyme, 10–500 μM substrate, room temperature): > 500 µM

CNC(=O)[C@@H](NC(=O)[C@H](CC(C)C)[C@H](O)C(=O)NO)C(C)(C)C [Marimastat, N4-[2,2-dimethyl-1(S)-[(methylamino)carbonyl]propyl]-N1,2(S)-dihydroxy-3(R)-(2-methylpropyl) butanediamide]
Ki (ADAM33 [3]): 157 ± 38 nM

B1: ADAM33 (Homo sapiens) (protein)
chain: T1 sequence (Q9BZ11 204-409 limits assumed)
notes: made in house; host or cells: Drosophila melanogaster S2 cells
Km [4]: 3.0 ± 0.1 mM | kcat [4]: 0.7 ± 0.1 s⁻¹ | kcat/Km [4]: (2.6±0.5)×10^2 M^−1 s^−1 | Km [5]: 1.0 ± 0.1 mM | kcat [5]: 0.2 ± 0.1 s⁻¹ | kcat/Km [5]: (1.6±0.3)×10^2 M^−1 s^−1

B2: ADAM33 N231Q: modified ADAM33 catalytic domain N231Q, SEQ ID NO: 8 with C-terminal Ser-Gly His6 Tag (protein)
chain: T1 sequence (Q9BZ11 204-409 limits assumed) with N28Q
modifications: C-terminal Ser-Gly His6 tag; homo sapiens
Denaturation Temp. ([6]; CaCl2 0 mM): 43.5 °C | ΔDenaturation Temp. ([6]; CaCl2 0 mM): 0.0 °C | Denaturation Temp. ([6]; CaCl2 0.003 mM): 50.6 °C | ΔDenaturation Temp. ([6]; CaCl2 0.003 mM): 7.1 °C | Denaturation Temp. ([6]; CaCl2 0.03 mM): 52.9 °C | ΔDenaturation Temp. ([6]; CaCl2 0.03 mM): 9.4 °C | Denaturation Temp. ([6]; CaCl2 0.3 mM): 53.9 °C | ΔDenaturation Temp. ([6]; CaCl2 0.3 mM): 10.4 °C | Denaturation Temp. ([6]; CaCl2 0.5 mM): 56.9 °C | ΔDenaturation Temp. ([6]; CaCl2 0.5 mM): 13.4 °C | Denaturation Temp. ([6]; CaCl2 1.0 mM): 57.9 °C | ΔDenaturation Temp. ([6]; CaCl2 1.0 mM): 14.4 °C | Denaturation Temp. ([6]; CaCl2 2.5 mM): 60.6 °C | ΔDenaturation Temp. ([6]; CaCl2 2.5 mM): 17.1 °C | Denaturation Temp. ([6]; CaCl2 5.0 mM): 61.5 °C | ΔDenaturation Temp. ([6]; CaCl2 5.0 mM): 18.0 °C | Denaturation Temp. ([6]; CaCl2 10.0 mM): 63.3 °C | ΔDenaturation Temp. ([6]; CaCl2 10.0 mM): 19.8 °C | Denaturation Temp. ([6]; CaCl2 25.0 mM): 64.6 °C | ΔDenaturation Temp. ([6]; CaCl2 25.0 mM): 21.1 °C | Denaturation Temp. ([6]; CaCl2 50.0 mM): 65.6 °C | ΔDenaturation Temp. ([6]; CaCl2 50.0 mM): 22.1 °C | Denaturation Temp. ([6]; CaCl2 100.0 mM): 65.2 °C | ΔDenaturation Temp. ([6]; CaCl2 100.0 mM): 21.7 °C

B3: CAT domain: purified catalytic (protease) domain of human ADAM33 (protein)
chain: EARRTRKYLELYIVADHTLFLTRHRNLNHTKQRLLEVANYVDQLLRTLDIQVALTGLEVWTERDRSRVTQDANATLWAFLQWRRGLWAQRPHDSAQLLTGRAFQGATVGLAPVEGMCRAESSGGVSTDHSELPIGAAATMAHEIGHSLGLSHDPDGCCVEAAAESGGCVMAAATGHPFPRVFSACSRRQLRAFFRKGGGACLSNAPSGHHHHHH
catalytic efficiency (ADAM33 [2]; MCF peptide substrate, estimated): 2.6±0.5)×10^2 M^−1 s^−1
